Test results reported in patent publication US20110300138A1 (published 2011).
One block for each molecule: values may come before it.

Tests used:
[1] = target: TSHR with Arg255 mutated to Asp expressed in CHO cells (human) (UniProt P16473); assay: cell-based or functional assay
[2] = target: TSHR with Arg274 mutated to Ala, expressed in CHO cells (human) (UniProt P16473); assay: cell-based or functional assay
[3] = target: TSHR with Glu157 mutated to Ala, expressed in CHO cells (human) (UniProt P16473); assay: cell-based or functional assay
[4] = target: TSHR with Glu178 mutated to Ala expressed in CHO cells (human) (UniProt P16473); assay: cell-based or functional assay
[5] = target: TSHR with Glu251 mutated to Ala (human) (UniProt P16473); assay: cell-based or functional assay
[6] = target: TSHR with Ile60 mutated to Ala, expressed in CHO cells (human) (UniProt P16473); assay: cell-based or functional assay
[7] = target: TSHR with Trp258 mutated to Ala (human) (UniProt P16473); assay: cell-based or functional assay
[8] = target: TSHR with Tyr82 mutated to Ala expressed in CHO cells (human) (UniProt P16473); assay: cell-based or functional assay
[9] = target: human thyroid stimulating hormone receptor (TSHR), full length (human) (UniProt P16473); assay: 125I-K1-18 Fab competition, TSHR coated tubes; 0.01 µg/mL in assay buffer

Cyclic AMP produced (pmol/mL), TSH 0.01 ng/mL, Experiment 1 [1]: 2.59 pmol/mL
Cyclic AMP produced (pmol/mL), TSH 0.01 ng/mL, Experiment 2 [1]: 1.49 pmol/mL
Cyclic AMP produced (pmol/mL), TSH 0.01 ng/mL, Experiment 3 [1]: 6.46 pmol/mL
Cyclic AMP produced (pmol/mL), TSH 0.03 ng/mL, Experiment 1 [1]: 6.47 pmol/mL
Cyclic AMP produced (pmol/mL), TSH 0.03 ng/mL, Experiment 2 [1]: 2.81 pmol/mL
Cyclic AMP produced (pmol/mL), TSH 0.03 ng/mL, Experiment 3 [1]: 9.44 pmol/mL
Cyclic AMP produced (pmol/mL), TSH 0.1 ng/mL, Experiment 1 [1]: 19.2 pmol/mL
Cyclic AMP produced (pmol/mL), TSH 0.1 ng/mL, Experiment 2 [1]: 6.92 pmol/mL
Cyclic AMP produced (pmol/mL), TSH 0.1 ng/mL, Experiment 3 [1]: 22.7 pmol/mL
Cyclic AMP produced (pmol/mL), TSH 0.3 ng/mL, Experiment 1 [1]: 51.7 pmol/mL
Cyclic AMP produced (pmol/mL), TSH 0.3 ng/mL, Experiment 2 (duplicate determination) [1]: 21.2 pmol/mL
Cyclic AMP produced (pmol/mL), TSH 0.3 ng/mL, Experiment 3 [1]: 68.9 pmol/mL
Cyclic AMP produced (pmol/mL), TSH 1 ng/mL, Experiment 1 [1]: 68.6 pmol/mL
Cyclic AMP produced (pmol/mL), TSH 1 ng/mL, Experiment 2 [1]: 41.1 pmol/mL
Cyclic AMP produced (pmol/mL), TSH 1 ng/mL, Experiment 3 [1]: 154 pmol/mL
Cyclic AMP produced (pmol/mL), TSH 3 ng/mL, Experiment 1 [1]: 57.7 pmol/mL
Cyclic AMP produced (pmol/mL), TSH 3 ng/mL, Experiment 2 [1]: 52.4 pmol/mL
Cyclic AMP produced (pmol/mL), TSH 3 ng/mL, Experiment 3 [1]: 201 pmol/mL
Mutated/Wild type (%) of cyclic AMP produced, TSH 0.01 ng/mL, Experiment 1 [1]: 59%
Mutated/Wild type (%) of cyclic AMP produced, TSH 0.01 ng/mL, Experiment 2 [1]: 67%
Mutated/Wild type (%) of cyclic AMP produced, TSH 0.01 ng/mL, Experiment 3 [1]: 124%
Mutated/Wild type (%) of cyclic AMP produced, TSH 0.03 ng/mL, Experiment 1 [1]: 70%
Mutated/Wild type (%) of cyclic AMP produced, TSH 0.03 ng/mL, Experiment 2 [1]: 78%
Mutated/Wild type (%) of cyclic AMP produced, TSH 0.03 ng/mL, Experiment 3 [1]: 96%
Mutated/Wild type (%) of cyclic AMP produced, TSH 0.1 ng/mL, Experiment 1 [1]: 71%
Mutated/Wild type (%) of cyclic AMP produced, TSH 0.1 ng/mL, Experiment 2 [1]: 88%
Mutated/Wild type (%) of cyclic AMP produced, TSH 0.1 ng/mL, Experiment 3 [1]: 91%
Mutated/Wild type (%) of cyclic AMP produced, TSH 0.3 ng/mL, Experiment 1 [1]: 123%
Mutated/Wild type (%) of cyclic AMP produced, TSH 0.3 ng/mL, Experiment 2 [1]: 78%
Mutated/Wild type (%) of cyclic AMP produced, TSH 0.3 ng/mL, Experiment 3 [1]: 75%
Mutated/Wild type (%) of cyclic AMP produced, TSH 1 ng/mL, Experiment 1 [1]: 114%
Mutated/Wild type (%) of cyclic AMP produced, TSH 1 ng/mL, Experiment 2 [1]: 76%
Mutated/Wild type (%) of cyclic AMP produced, TSH 1 ng/mL, Experiment 3 [1]: 80%
Mutated/wild type (%) of cyclic AMP produced; TSH 3 ng/mL; Experiment 1 [1]: 94%
Mutated/wild type (%) of cyclic AMP produced; TSH 3 ng/mL; Experiment 2 [1]: 90%
Cyclic AMP produced (pmol/mL), TSH 0.01 ng/mL, Experiment 1 [2]: 1.97 pmol/mL
Cyclic AMP produced (pmol/mL), TSH 0.01 ng/mL, Experiment 2 [2]: 1.37 pmol/mL
Cyclic AMP produced (pmol/mL), TSH 0.03 ng/mL, Experiment 1 [2]: 4.14 pmol/mL
Cyclic AMP produced (pmol/mL), TSH 0.03 ng/mL, Experiment 2 [2]: 2.94 pmol/mL
Cyclic AMP produced (pmol/mL), TSH 0.1 ng/mL, Experiment 1 [2]: 9.38 pmol/mL
Cyclic AMP produced (pmol/mL), TSH 0.1 ng/mL, Experiment 2 [2]: 8.29 pmol/mL
Cyclic AMP produced (pmol/mL), TSH 0.3 ng/mL, Experiment 1 [2]: 27.3 pmol/mL
Cyclic AMP produced (pmol/mL), TSH 0.3 ng/mL, Experiment 2 [2]: 25.5 pmol/mL
Cyclic AMP produced (pmol/mL), TSH 1 ng/mL, Experiment 1 [2]: 67.6 pmol/mL
Cyclic AMP produced (pmol/mL), TSH 1 ng/mL, Experiment 2 [2]: 58.5 pmol/mL
Cyclic AMP produced (pmol/mL), TSH 3 ng/mL, Experiment 1 [2]: 98.8 pmol/mL
Cyclic AMP produced (pmol/mL), TSH 3 ng/mL, Experiment 2 [2]: 73.2 pmol/mL
Mutated/Wild type (%), TSH 0.01 ng/mL, Experiment 1 [2]: 106%
Mutated/Wild type (%), TSH 0.01 ng/mL, Experiment 2 [2]: 55%
Mutated/Wild type (%), TSH 0.03 ng/mL, Experiment 1 [2]: 125%
Mutated/Wild type (%), TSH 0.03 ng/mL, Experiment 2 [2]: 57%
Mutated/Wild type (%), TSH 0.1 ng/mL, Experiment 1 [2]: 64%
Mutated/Wild type (%), TSH 0.1 ng/mL, Experiment 2 [2]: 61%
Mutated/Wild type (%), TSH 0.3 ng/mL, Experiment 1 [2]: 56%
Mutated/Wild type (%), TSH 0.3 ng/mL, Experiment 2 [2]: 64%
Mutated/Wild type (%), TSH 1 ng/mL, Experiment 1 [2]: 74%
Mutated/Wild type (%), TSH 1 ng/mL, Experiment 2 [2]: 79%
Mutated/Wild type (%), TSH 3 ng/mL, Experiment 1 [2]: 83%
Mutated/Wild type (%), TSH 3 ng/mL, Experiment 2 [2]: 82%
Mutated/Wild type (%) of cyclic AMP produced, TSH 0.01 ng/mL [3]: 450%
Mutated/Wild type (%) of cyclic AMP produced, TSH 0.03 ng/mL [3]: 328%
Mutated/Wild type (%) of cyclic AMP produced, TSH 0.1 ng/mL [3]: 164%
Mutated/Wild type (%) of cyclic AMP produced, TSH 0.3 ng/mL [3]: 118%
Mutated/Wild type (%) of cyclic AMP produced, TSH 1 ng/mL [3]: 86%
Mutated/wild type (%) of cyclic AMP produced; TSH 3 ng/mL [3]: 115%
Mutated/Wild type (%) of cyclic AMP produced, TSH 0.01 ng/mL [4]: 467%
Mutated/Wild type (%) of cyclic AMP produced, TSH 0.03 ng/mL [4]: 240%
Mutated/Wild type (%) of cyclic AMP produced, TSH 0.1 ng/mL [4]: 115%
Mutated/Wild type (%) of cyclic AMP produced, TSH 0.3 ng/mL [4]: 71%
Mutated/Wild type (%) of cyclic AMP produced, TSH 1 ng/mL [4]: 54%
Cyclic AMP produced (mean of duplicate), TSH 3 ng/mL [5]: 71.7 pmol/mL
Mutated/Wild type (%) of cyclic AMP produced, TSH 0.01 ng/mL [5]: 243%
Mutated/Wild type (%) of cyclic AMP produced, TSH 0.03 ng/mL [5]: 224%
Mutated/Wild type (%) of cyclic AMP produced, TSH 0.1 ng/mL [5]: 115%
Mutated/Wild type (%) of cyclic AMP produced, TSH 0.3 ng/mL [5]: 67%
Mutated/Wild type (%) of cyclic AMP produced, TSH 1 ng/mL [5]: 69%
Mutated/wild type (%) of cyclic AMP produced; TSH 3 ng/mL [5]: 66%
% inhibition of TSH stimulation; TSH (2), run at the end of assay; Experiment 1 [6]: 12%
% inhibition of TSH stimulation; TSH (2), run at the end of assay; Experiment 2 [6]: 13%
Mutated/Wild type (%) of cyclic AMP produced, TSH 0.01 ng/mL [6]: 358%
Mutated/Wild type (%) of cyclic AMP produced, TSH 0.03 ng/mL [6]: 178%
Mutated/Wild type (%) of cyclic AMP produced, TSH 0.1 ng/mL [6]: 201%
Mutated/Wild type (%) of cyclic AMP produced, TSH 0.3 ng/mL [6]: 96%
Mutated/Wild type (%) of cyclic AMP produced, TSH 1 ng/mL [6]: 77%
Mutated/wild type (%) of cyclic AMP produced; TSH 3 ng/mL [6]: 83%
Mutated/wild type (%) of cyclic AMP produced; TSH 3 ng/mL; Experiment 1 [6]: 57%
Mutated/wild type (%) of cyclic AMP produced; TSH 3 ng/mL; Experiment 2 [6]: 81%
Mutated/wild type (%) of cyclic AMP produced; TSH (2) 3 ng/mL, run at the end of assay; Experiment 1 [6]: 54%
Mutated/wild type (%) of cyclic AMP produced; TSH (2) 3 ng/mL, run at the end of assay; Experiment 2 [6]: 69%
Cyclic AMP produced, TSH 0.01 ng/mL, Experiment 1 [7]: 1.93 pmol/mL
Cyclic AMP produced, TSH 0.01 ng/mL, Experiment 2 [7]: 1.56 pmol/mL
Cyclic AMP produced, TSH 0.03 ng/mL, Experiment 1 [7]: 2.88 pmol/mL
Cyclic AMP produced, TSH 0.03 ng/mL, Experiment 2 [7]: 2.76 pmol/mL
Cyclic AMP produced, TSH 0.1 ng/mL, Experiment 1 [7]: 7.51 pmol/mL
Cyclic AMP produced, TSH 0.1 ng/mL, Experiment 2 [7]: 7.04 pmol/mL
Cyclic AMP produced, TSH 0.3 ng/mL, Experiment 1 [7]: 22.3 pmol/mL
Cyclic AMP produced, TSH 0.3 ng/mL, Experiment 2 [7]: 17.3 pmol/mL
Cyclic AMP produced, TSH 1 ng/mL, Experiment 1 [7]: 45.7 pmol/mL
Cyclic AMP produced, TSH 1 ng/mL, Experiment 2 [7]: 49.2 pmol/mL
Cyclic AMP produced; TSH 3 ng/mL; Experiment 1 [7]: 54 pmol/mL
Cyclic AMP produced; TSH 3 ng/mL; Experiment 2 [7]: 84.7 pmol/mL
Mutated/Wild type (%) of cyclic AMP produced, TSH 0.01 ng/mL, Experiment 1 [7]: 158%
Mutated/Wild type (%) of cyclic AMP produced, TSH 0.01 ng/mL, Experiment 2 [7]: 77%
Mutated/Wild type (%) of cyclic AMP produced, TSH 0.03 ng/mL, Experiment 1 [7]: 156%
Mutated/Wild type (%) of cyclic AMP produced, TSH 0.03 ng/mL, Experiment 2 [7]: 141%
Mutated/Wild type (%) of cyclic AMP produced, TSH 0.1 ng/mL, Experiment 1 [7]: 154%
Mutated/Wild type (%) of cyclic AMP produced, TSH 0.1 ng/mL, Experiment 2 [7]: 156%
Mutated/Wild type (%) of cyclic AMP produced, TSH 0.3 ng/mL, Experiment 1 [7]: 128%
Mutated/Wild type (%) of cyclic AMP produced, TSH 0.3 ng/mL, Experiment 2 [7]: 128%
Mutated/Wild type (%) of cyclic AMP produced, TSH 1 ng/mL, Experiment 1 [7]: 86%
Mutated/Wild type (%) of cyclic AMP produced, TSH 1 ng/mL, Experiment 2 [7]: 114%
Mutated/wild type (%) of cyclic AMP produced; TSH 3 ng/mL; Experiment 1 [7]: 76%
Mutated/wild type (%) of cyclic AMP produced; TSH 3 ng/mL; Experiment 2 [7]: 100%
% inhibition of TSH stimulation; TSH (2); Experiment 1 [8]: 44%
% inhibition of TSH stimulation; TSH (2); Experiment 2 [8]: 22%
Cyclic AMP produced; TSH 3 ng/mL; Experiment 1 [8]: 166 pmol/mL
Cyclic AMP produced; TSH 3 ng/mL; Experiment 2 [8]: 74.6 pmol/mL
Cyclic AMP produced; TSH (2); Experiment 1 [8]: 92.3 pmol/mL
Cyclic AMP produced; TSH (2); Experiment 2 [8]: 57.9 pmol/mL
Mutated/wild type (%) of cyclic AMP produced; TSH 3 ng/mL; Experiment 1 [8]: 108%
Mutated/wild type (%) of cyclic AMP produced; TSH 3 ng/mL; Experiment 2 [8]: 125%
Mutated/wild type (%) of cyclic AMP produced; TSH (2); Experiment 1 [8]: 58%
Mutated/wild type (%) of cyclic AMP produced; TSH (2); Experiment 2 [8]: 94%
Molecule: TSH (ligand)

Inhibition of binding (%) [9]: 3%
B1: 5C9 IgG (antibody, from another filing, V domains shown)
VH: EVQLVESGGGLIQPGGSLRLSCAASGFTVSSNYMSWVRQAPGKGLEWVSVTYSGGSTSYADSVKGRFTISRDNSKNTLYLQMNSLRAEDTAVYYCARGGRYCSSISCYARSGCDYWGQGTLVTVSS
VL: AIQMTQSPSSLSASVGDRVTITCRASQSISNYLNWYQQKPGKAPKLLIYAASSLQSGVPSRFSGSGSGTDFTLTISSLQPEDFATYYCQQSYSSPSTTFGQGTKLEIK
